Common to all, as to assay: Co-AP mass spectrometry with TMT quantification
In one assay the target is UGGT2. To be noted: HEK293 cells; TMT intensities of interactors normalized to Tg intensities; read off a plot.
The target in the next assay is PSMB4. Conditions: HEK293 cells; TMT intensities of interactors normalized to Tg intensities; read off a plot.
The target of a further assay is PSME2. Conditions: HEK293 cells; TMT intensities of interactors normalized to Tg intensities; read off a plot.
In a further assay the target is PRKCSH. Conditions: HEK293 cells; TMT intensities of interactors normalized to Tg intensities; read off a plot.
The target of the next assay is PSMA1. To be noted: HEK293 cells; TMT intensities of interactors normalized to Tg intensities; read off a plot.
The next assay addresses MOGS. To be noted: HEK293 cells; TMT intensities of interactors normalized to Tg intensities; read off a plot.
In another assay the target is PSMD3. To be noted: HEK293 cells; TMT intensities of interactors normalized to Tg intensities; read off a plot.
Another assay concerns the target PSMC4. Conditions: HEK293 cells; TMT intensities of interactors normalized to Tg intensities; read off a plot.
For assay [1], the target named is calreticulin [human (endogenous in HEK293 cells)]. Conditions: TMT intensities of interactors normalized to Tg intensities, read off a plot.
Assay [2] concerns the target oligosaccharyl transferase complex catalytic subunit A [human (endogenous in HEK293 cells)]. Conditions: TMT intensities of interactors normalized to Tg intensities, read off a plot.
The target of assay [3] is RAD-dependent oxidoreductase domain containing 2 [human (endogenous in HEK293 cells)]. Conditions: TMT intensities of interactors normalized to Tg intensities, read off a plot.

As to “FLAG-tagged thyroglobulin, WT (from UniProt P01266) A2234D”, the other: log2 fold change vs WT with UGGT2 is 0.15 log2; in the assay with PSMB4 it was -0.33 log2; in the assay with PSME2, -0.27 log2; with PRKCSH it was -0.39 log2; with PSMA1, -0.28 log2; in the assay with MOGS it was 0.09 log2. For the same substance, the other: log2 fold change vs WT with PSMD3 was -0.35 log2.

In the case of “FLAG-tagged thyroglobulin, WT (from UniProt P01266) C1264R”, the other: log2 fold change vs WT with UGGT2 was -0.09 log2; with PSMB4 it was -0.35 log2; with PSMC4, -0.53 log2; with PSME2, -0.54 log2; with PRKCSH, -0.05 log2; with PSMA1 it was -0.27 log2. Further, the other: log2 fold change vs WT with MOGS was -0.15 log2; with PSMD3, -0.45 log2.

“FLAG-tagged thyroglobulin, WT (from UniProt P01266) G2341R”: the other: log2 fold change vs WT was 0.73 log2 in the assay with UGGT2; -0.53 log2 in the assay with PSMB4; -0.51 log2 in the assay with PSMC4; -0.65 log2 with PSME2; 0.04 log2 in the assay with PSMA1; -0.05 log2 with MOGS. The other: log2 fold change vs WT with PSMD3 is -0.42 log2.

For “FLAG-tagged thyroglobulin, WT (from UniProt P01266) L2284P”, the other: log2 fold change vs WT was 0.49 log2 with UGGT2; -0.51 log2 in the assay with PSMB4; -0.27 log2 with PSMC4; -0.45 log2 in the assay with PSME2; -0.04 log2 with PSMA1; -0.02 log2 with MOGS. Also, in the assay with PSMD3, the other: log2 fold change vs WT was -0.33 log2.

With “FLAG-tagged thyroglobulin, WT mutant A2234D [human] / calreticulin [human (endogenous in HEK293 cells)] chain 1 A2215D”, the screen value in assay [1] stood at 0.07 log2.

On to “FLAG-tagged thyroglobulin, WT mutant A2234D [human] / oligosaccharyl transferase complex catalytic subunit A [human (endogenous in HEK293 cells)] chain 1 A2215D”, for which the screen value in assay [2] is -0.15 log2.

For the substance “FLAG-tagged thyroglobulin, WT mutant C1264R [human] / calreticulin [human (endogenous in HEK293 cells)] chain 1 C1245R”, the screen value in [1] worked out at 0.18 log2.

As for “FLAG-tagged thyroglobulin, WT mutant C1264R [human] / oligosaccharyl transferase complex catalytic subunit A [human (endogenous in HEK293 cells)] chain 1 C1245R”, in assay [2], the screen value is -0.37 log2.

Turning to “FLAG-tagged thyroglobulin, WT mutant G2341R [human] / calreticulin [human (endogenous in HEK293 cells)] chain 1 G2322R”, the screen value in [1] is 0.46 log2.

In assay [2], “FLAG-tagged thyroglobulin, WT mutant G2341R [human] / oligosaccharyl transferase complex catalytic subunit A [human (endogenous in HEK293 cells)] chain 1 G2322R” gave a screen value of -0.21 log2.

Regarding “FLAG-tagged thyroglobulin, WT mutant L2284P [human] / RAD-dependent oxidoreductase domain containing 2 [human (endogenous in HEK293 cells)] chain 1 L2265P”, the screen value in [3] was 0.58 log2.

In turn, “FLAG-tagged thyroglobulin, WT mutant L2284P [human] / calreticulin [human (endogenous in HEK293 cells)] chain 1 L2265P” gave a screen value in assay [1] of 0.5 log2.

Take “FLAG-tagged thyroglobulin, WT mutant L2284P [human] / oligosaccharyl transferase complex catalytic subunit A [human (endogenous in HEK293 cells)] chain 1 L2265P”: the screen value in assay [2] is -0.1 log2.

The record behind these values is article PMC7950113.
